Results as given in patent US20060052582A1 (published 2006).

B1: FLAG Nercc (full-length wild type Nercc1 kinase with FLAG epitope tag) (enzyme)
chain: MDYKDDDDKMSVLGEYERHCDSINSDFGSESGGCGDSSPGPSASQGPRAGGGAAEQEELHYIPIRVLGRGAFGEATLYRRTEDDSLVVWKEVDLTRLSEKERRDALNEIVILALLQHDNIIAYYNHFMDNTTLLIELEYCNGGNLYDKILRQKDKLFEEEMVVWYLFQIVSAVSCIHKAGILHRDIKTLNIFLTKANLIKLGDYGLAKKLNSEYSMAETLVGTPYYMSPELCQGVKYNFKSDIWAVGCVIFELLTLKRTFDATNPLNLCVKIVQGIRAMEVDSSQYSLELIQMVHSCLDQDPEQRPTADELLDRPLLRKRRREMEEKVTLLNAPTKRPRSSTVTEAPIAVVTSRTSEVYIWGGGKSTPQKLDVIKSGCSARQVCAGNTHFAVVTVEKELYTWVNMQGGTKLHGQLGHGDKASYRQPKHVEKLQGKAIHQVSCGDDFTVCVTDEGQLYAFGSDYYGCMGVDKVAGPEVLEPMQLNFFLSNPVEQVSCGDNHVVVLTRNKEVYSWGCGEYGRLGLDSEEDYYTPQKVDVPKALIIVAVQCGCDGTFLLTQSGKVLACGLNEFNKLGLNQCMSGIINHEAYHEVPYTTSFTLAKQLSFYKIRTIAPGKTHTAAIDERGRLLTFGCNKCGQLGVGNYKKRLGINLLGGPLGGKQVIRVSCGDEFTIAATDDNHIFAWGNGGNGRLAMTPTERPHGSDICTSWPRPIFGSLHHVPDLSCRGWHTILIVEKVLNSKTIRSNSSGLSIGTVFQSSSPGGGGGGGGGEEEDSQQESETPDPSGGFRGTMEADRGMEGLISPTEAMGNSNGASSSCPGWLRKELENAEFIPMPDSPSPLSAAFSESEKDTLPYEELQGLKVASEAPLEHKPQVEASSPRLNPAVTCAGKGTPLTPPACACSSLQVEVERLQGLVLKCLAEQQKLQQENLQIFTQLQKLNKKLEGGQQVGMHSKGTQTAKEEMEMDPKPDLDSDSGCLLGTDSCRPSL
notes: Expressed in HEK293 cells; also called FLAG Nercc1; FLAG Nercc full length (FL)
B2: NLS Nercc FL (nuclear form of full length Nercc with an NLS peptide at the N-terminus) (enzyme)
chain: MSVLGEYERHCDSINSDFGSESGGCGDSSPGPSASQGPRAGGGAAEQEELHYIPIRVLGRGAFGEATLYRRTEDDSLVVWKEVDLTRLSEKERRDALNEIVILALLQHDNIIAYYNHFMDNTTLLIELEYCNGGNLYDKILRQKDKLFEEEMVVWYLFQIVSAVSCIHKAGILHRDIKTLNIFLTKANLIKLGDYGLAKKLNSEYSMAETLVGTPYYMSPELCQGVKYNFKSDIWAVGCVIFELLTLKRTFDATNPLNLCVKIVQGIRAMEVDSSQYSLELIQMVHSCLDQDPEQRPTADELLDRPLLRKRRREMEEKVTLLNAPTKRPRSSTVTEAPIAVVTSRTSEVYIWGGGKSTPQKLDVIKSGCSARQVCAGNTHFAVVTVEKELYTWVNMQGGTKLHGQLGHGDKASYRQPKHVEKLQGKAIHQVSCGDDFTVCVTDEGQLYAFGSDYYGCMGVDKVAGPEVLEPMQLNFFLSNPVEQVSCGDNHVVVLTRNKEVYSWGCGEYGRLGLDSEEDYYTPQKVDVPKALIIVAVQCGCDGTFLLTQSGKVLACGLNEFNKLGLNQCMSGIINHEAYHEVPYTTSFTLAKQLSFYKIRTIAPGKTHTAAIDERGRLLTFGCNKCGQLGVGNYKKRLGINLLGGPLGGKQVIRVSCGDEFTIAATDDNHIFAWGNGGNGRLAMTPTERPHGSDICTSWPRPIFGSLHHVPDLSCRGWHTILIVEKVLNSKTIRSNSSGLSIGTVFQSSSPGGGGGGGGGEEEDSQQESETPDPSGGFRGTMEADRGMEGLISPTEAMGNSNGASSSCPGWLRKELENAEFIPMPDSPSPLSAAFSESEKDTLPYEELQGLKVASEAPLEHKPQVEASSPRLNPAVTCAGKGTPLTPPACACSSLQVEVERLQGLVLKCLAEQQKLQQENLQIFTQLQKLNKKLEGGQQVGMHSKGTQTAKEEMEMDPKPDLDSDSGCLLGTDSCRPSL
notes: Probably FLAG-tagged like the other constructs; not shown: NLS peptide (a copy of the Nercc NLS)
B3: FLAG Nercc (338-739) (other)
chain: MDYKDDDDKPIAVVTSRTSEVYIWGGGKSTPQKLDVIKSGCSARQVCAGNTHFAVVTVEKELYTWVNMQGGTKLHGQLGHGDKASYRQPKHVEKLQGKAIHQVSCGDDFTVCVTDEGQLYAFGSDYYGCMGVDKVAGPEVLEPMQLNFFLSNPVEQVSCGDNHVVVLTRNKEVYSWGCGEYGRLGLDSEEDYYTPQKVDVPKALIIVAVQCGCDGTFLLTQSGKVLACGLNEFNKLGLNQCMSGIINHEAYHEVPYTTSFTLAKQLSFYKIRTIAPGKTHTAAIDERGRLLTFGCNKCGQLGVGNYKKRLGINLLGGPLGGKQVIRVSCGDEFTIAATDDNHIFAWGNGGNGRLAMTPTERPHGSDICTSWPRPIFGSLHHVPDLSCRGWHTILIVEKVLNSKTIRSNSSG
notes: also called Nercc RCC1 domain; Nercc RCC1-like domain
B4: Nercc (338-739) fused to the Nercc NLS (other)
chain: PIAVVTSRTSEVYIWGGGKSTPQKLDVIKSGCSARQVCAGNTHFAVVTVEKELYTWVNMQGGTKLHGQLGHGDKASYRQPKHVEKLQGKAIHQVSCGDDFTVCVTDEGQLYAFGSDYYGCMGVDKVAGPEVLEPMQLNFFLSNPVEQVSCGDNHVVVLTRNKEVYSWGCGEYGRLGLDSEEDYYTPQKVDVPKALIIVAVQCGCDGTFLLTQSGKVLACGLNEFNKLGLNQCMSGIINHEAYHEVPYTTSFTLAKQLSFYKIRTIAPGKTHTAAIDERGRLLTFGCNKCGQLGVGNYKKRLGINLLGGPLGGKQVIRVSCGDEFTIAATDDNHIFAWGNGGNGRLAMTPTERPHGSDICTSWPRPIFGSLHHVPDLSCRGWHTILIVEKVLNSKTIRSNSSG
notes: also called Nercc RCC1 domain directed to the nucleus; not shown: Nercc NLS
B5: FLAG Nercc (1-891) (enzyme)
chain: MDYKDDDDKMSVLGEYERHCDSINSDFGSESGGCGDSSPGPSASQGPRAGGGAAEQEELHYIPIRVLGRGAFGEATLYRRTEDDSLVVWKEVDLTRLSEKERRDALNEIVILALLQHDNIIAYYNHFMDNTTLLIELEYCNGGNLYDKILRQKDKLFEEEMVVWYLFQIVSAVSCIHKAGILHRDIKTLNIFLTKANLIKLGDYGLAKKLNSEYSMAETLVGTPYYMSPELCQGVKYNFKSDIWAVGCVIFELLTLKRTFDATNPLNLCVKIVQGIRAMEVDSSQYSLELIQMVHSCLDQDPEQRPTADELLDRPLLRKRRREMEEKVTLLNAPTKRPRSSTVTEAPIAVVTSRTSEVYIWGGGKSTPQKLDVIKSGCSARQVCAGNTHFAVVTVEKELYTWVNMQGGTKLHGQLGHGDKASYRQPKHVEKLQGKAIHQVSCGDDFTVCVTDEGQLYAFGSDYYGCMGVDKVAGPEVLEPMQLNFFLSNPVEQVSCGDNHVVVLTRNKEVYSWGCGEYGRLGLDSEEDYYTPQKVDVPKALIIVAVQCGCDGTFLLTQSGKVLACGLNEFNKLGLNQCMSGIINHEAYHEVPYTTSFTLAKQLSFYKIRTIAPGKTHTAAIDERGRLLTFGCNKCGQLGVGNYKKRLGINLLGGPLGGKQVIRVSCGDEFTIAATDDNHIFAWGNGGNGRLAMTPTERPHGSDICTSWPRPIFGSLHHVPDLSCRGWHTILIVEKVLNSKTIRSNSSGLSIGTVFQSSSPGGGGGGGGGEEEDSQQESETPDPSGGFRGTMEADRGMEGLISPTEAMGNSNGASSSCPGWLRKELENAEFIPMPDSPSPLSAAFSESEKDTLPYEELQGLKVASEAPLEHKPQVEASSPRLNPAVTCAGKGTPLTPPACA

Columns and labels:
[1] = target: T1, HA Nercc (full-length Nercc1 with HA epitope tag) (human, UniProt Q8TD19 1-979); experiment: anti-HA immunoprecipitation from co-transfected HEK293 cells, anti-FLAG blot
T1 construct: also called HA Nercc FL
T1 sequence: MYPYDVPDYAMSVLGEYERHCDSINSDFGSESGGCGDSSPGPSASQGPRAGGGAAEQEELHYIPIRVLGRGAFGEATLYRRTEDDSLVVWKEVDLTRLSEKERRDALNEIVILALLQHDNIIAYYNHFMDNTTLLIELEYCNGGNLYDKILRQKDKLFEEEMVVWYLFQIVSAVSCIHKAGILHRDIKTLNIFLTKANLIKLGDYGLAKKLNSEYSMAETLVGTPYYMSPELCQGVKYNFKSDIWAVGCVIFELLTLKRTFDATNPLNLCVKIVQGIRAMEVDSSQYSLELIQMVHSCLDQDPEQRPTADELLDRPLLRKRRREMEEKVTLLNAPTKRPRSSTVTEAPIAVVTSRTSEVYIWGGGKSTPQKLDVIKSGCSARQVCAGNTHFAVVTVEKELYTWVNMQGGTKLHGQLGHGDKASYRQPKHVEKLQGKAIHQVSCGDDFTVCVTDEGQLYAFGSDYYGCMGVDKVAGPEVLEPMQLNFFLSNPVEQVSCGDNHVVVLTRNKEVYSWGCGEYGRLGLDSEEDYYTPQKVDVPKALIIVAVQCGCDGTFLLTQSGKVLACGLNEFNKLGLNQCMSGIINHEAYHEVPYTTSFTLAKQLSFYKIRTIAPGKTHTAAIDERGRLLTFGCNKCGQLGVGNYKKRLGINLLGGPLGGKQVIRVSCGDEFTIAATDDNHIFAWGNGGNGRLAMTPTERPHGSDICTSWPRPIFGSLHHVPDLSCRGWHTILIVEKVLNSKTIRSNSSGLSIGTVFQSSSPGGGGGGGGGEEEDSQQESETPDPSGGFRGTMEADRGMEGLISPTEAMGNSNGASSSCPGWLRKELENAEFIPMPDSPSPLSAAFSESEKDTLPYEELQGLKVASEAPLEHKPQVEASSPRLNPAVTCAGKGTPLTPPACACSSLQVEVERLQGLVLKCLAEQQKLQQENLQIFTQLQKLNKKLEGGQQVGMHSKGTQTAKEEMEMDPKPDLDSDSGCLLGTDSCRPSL

Ran G19V = Ran G19V (UniProt P62826 1-216); experiment: co-expression and co-immunoprecipitation
Excerpt: (§1) To address more directly the relative binding in vivo of Nercc to Ran-GDP compared to Ran-GTP, the cytoplasmic wild type Nercc and a nuclear form of full length Nercc (NLS-Nercc) were each co-expressed with wild type Ran or Ran mutants that bind GDP (T24N) or GTP (G19V) exclusively; either Ran or Nercc was immunoprecipitated and probed for the association with the other polypeptide. The full-length wild type Nercc bound co-expressed wild type Ran and Ran T24N to a greater extent than RanG19V.

Ran T24N = Ran T24N (UniProt P62826 1-216); experiment: co-expression and co-immunoprecipitation
Excerpt: as §1

| Binder | binding result [1] | binding result (Ran G19V) | binding result (Ran T24N) |
| --- | --- | --- | --- |
| B1 | binds |  |  |
| B2 |  | no binding |  |
| B3 |  | no binding | no binding |
| B4 |  | no binding | no binding |
| B5 | no binding |  |  |
